Laboratory results from patent publication US20190375846A1.

Target: human GITR at the cell surface (human) (UniProt Q9Y5U5)
Experiment: cell-based or functional assay

human GITR at the cell surface (human), sequence (Q9Y5U5 26-241): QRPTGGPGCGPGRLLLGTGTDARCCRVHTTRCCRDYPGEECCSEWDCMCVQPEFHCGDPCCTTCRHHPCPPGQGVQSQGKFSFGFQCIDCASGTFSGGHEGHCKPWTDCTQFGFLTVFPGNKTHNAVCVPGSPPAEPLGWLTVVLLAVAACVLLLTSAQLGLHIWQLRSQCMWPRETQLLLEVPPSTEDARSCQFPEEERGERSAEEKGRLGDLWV

concentration of maximum signal, GITR agonism reporter assay: 1000 to 2000 ng/mL
Substance: HA-tagged human GITRL protein cross-linked with anti-HA tag antibody (from UniProt Q9UNG2 52-177) (ligand)
